The record followed here is the supplement of paper PMC9112550, “Optimization of the antimicrobial peptide Bac7 by deep mutational scanning” (BMC Biology, 2022).

The data set deals with Escherichia coli TOP10. Nature of the data set: shrunken log2 fold change of peptide-encoding DNA abundance (4.5 h post-induction vs induction); higher = less antimicrobial activity (less host growth inhibition). The settings on record: time post-induction: 4.5 h; library: site-saturation at positions 5, 18, 19, 20.
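Note: peptides expressed intracellularly from a pBAD plasmid library in pooled LB shake-flask culture, induced with 0.3% L-arabinose, DNA abundance read by NGS, three biological replicates, DESeq2 with apeglm shrinkage.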

In the case of RRIRQRPPRLPRPRPRPEFDPRP, the “shrunken log2 fold change” value amounted to 0.00351. As to RRIRPRPPRLPRPRPRPRPEPRP, the “shrunken log2 fold change” value came out at 0.373. On to RRIRCRPPRLPRPRPRPVLTPRP, for which the “shrunken log2 fold change” value is -0.191. Turning to RRIRMRPPRLPRPRPRPWKRPRP, the “shrunken log2 fold change” value is -0.0605. For RRIRIRPPRLPRPRPRPAIDPRP, the “shrunken log2 fold change” value was -0.239. For the sequence RRIRPRPPRLPRPRPRPMVNPRP, the “shrunken log2 fold change” value is -0.0636. Next, RRIRDRPPRLPRPRPRPQQYPRP: -0.473. Next, RRIRCRPPRLPRPRPRPIHWPRP: -0.363. For RRIRWRPPRLPRPRPRPISFPRP the value was 0.00901; for RRIRRRPPRLPRPRPRPVQPPRP, 0.669. With RRIRQRPPRLPRPRPRPNLLPRP, the “shrunken log2 fold change” value is -0.0134.

Regarding RRIRIRPPRLPRPRPRPSPDPRP, the “shrunken log2 fold change” value worked out at 0.127.

As to RRIRRRPPRLPRPRPRPTYIPRP, the “shrunken log2 fold change” value was -0.12. Next, RRIRLRPPRLPRPRPRPALHPRP: 0.135; RRIRLRPPRLPRPRPRPNFIPRP: -0.228. For RRIRDRPPRLPRPRPRPFFFPRP, the “shrunken log2 fold change” value was determined as 0.483. As to RRIRERPPRLPRPRPRPRCVPRP, the “shrunken log2 fold change” value came to 0.0448. On to RRIRIRPPRLPRPRPRPFWLPRP, for which the “shrunken log2 fold change” value is 0.183.

RRIRRRPPRLPRPRPRPNELPRP: the “shrunken log2 fold change” value is 0.457. Take RRIRKRPPRLPRPRPRPCLQPRP: the “shrunken log2 fold change” value came to 0.194. For RRIRVRPPRLPRPRPRPPFMPRP the value was 1.97; for RRIRRRPPRLPRPRPRPMRVPRP, 0.93; for RRIRGRPPRLPRPRPRPWYGPRP, -0.242.

As to RRIRARPPRLPRPRPRPHARPRP, the “shrunken log2 fold change” value is 0.156. Next, RRIRYRPPRLPRPRPRPFSEPRP: 0.41; RRIRYRPPRLPRPRPRPCHMPRP: -0.218; RRIRVRPPRLPRPRPRPCLEPRP: 0.0452.

On to RRIRNRPPRLPRPRPRPIMFPRP, for which the “shrunken log2 fold change” value is -0.0388. For RRIRWRPPRLPRPRPRPFSNPRP, the “shrunken log2 fold change” value is -0.258. In the case of RRIRARPPRLPRPRPRPGFRPRP, the “shrunken log2 fold change” value worked out at 0.555.

As to RRIRLRPPRLPRPRPRPGAGPRP, the “shrunken log2 fold change” value came out at 0.448. With RRIRSRPPRLPRPRPRPTVNPRP, the “shrunken log2 fold change” value was -0.477. Next, RRIRRRPPRLPRPRPRPSRWPRP: 0.08; RRIRPRPPRLPRPRPRPYFLPRP: -0.614; RRIRHRPPRLPRPRPRPHLWPRP: -0.0776.

As for RRIRGRPPRLPRPRPRPSLMPRP, the “shrunken log2 fold change” value was 0.5. As to RRIRCRPPRLPRPRPRPLQMPRP, the “shrunken log2 fold change” value was -0.182. Next, RRIRNRPPRLPRPRPRPEILPRP: -0.0178. Next, RRIRLRPPRLPRPRPRPEKFPRP: -0.175; RRIRFRPPRLPRPRPRPQERPRP: 0.0046; RRIRVRPPRLPRPRPRPMMIPRP: -0.131.

For the sequence RRIRFRPPRLPRPRPRPGIEPRP, the “shrunken log2 fold change” value was -0.0616. For RRIRLRPPRLPRPRPRPQIIPRP the value was 0.0457.

As to RRIRLRPPRLPRPRPRPRNHPRP, the “shrunken log2 fold change” value is -0.44. Next, RRIRFRPPRLPRPRPRPYTGPRP: -0.0357; RRIRQRPPRLPRPRPRPTSCPRP: -0.0676; RRIRYRPPRLPRPRPRPHNEPRP: -0.675.

Take RRIRPRPPRLPRPRPRPLTPPRP: the “shrunken log2 fold change” value came out at 0.222. Take RRIRWRPPRLPRPRPRPVNAPRP: the “shrunken log2 fold change” value came out at 0.0945.

As to RRIRSRPPRLPRPRPRPYYMPRP, the “shrunken log2 fold change” value was -0.622. For RRIRVRPPRLPRPRPRPWTEPRP the value was -0.0547. For RRIRRRPPRLPRPRPRPQYEPRP, the “shrunken log2 fold change” value is -0.00402. For RRIRIRPPRLPRPRPRPSFGPRP the value was -0.389. Next, RRIRLRPPRLPRPRPRPSDSPRP: -0.498. RRIRCRPPRLPRPRPRPQADPRP: the “shrunken log2 fold change” value was 0.0688. Next, RRIRIRPPRLPRPRPRPWCYPRP: -0.406; RRIRPRPPRLPRPRPRPNQAPRP: -0.0302. For RRIRERPPRLPRPRPRPNIRPRP the value was -0.273.

For the sequence RRIRHRPPRLPRPRPRPESYPRP, the “shrunken log2 fold change” value is -0.012.

As for RRIRPRPPRLPRPRPRPNLPPRP, the “shrunken log2 fold change” value is -0.142. RRIRHRPPRLPRPRPRPTWFPRP: the “shrunken log2 fold change” value was 0.17. Next, RRIRCRPPRLPRPRPRPLDNPRP: -0.235; RRIRIRPPRLPRPRPRPQFTPRP: -0.986; RRIRQRPPRLPRPRPRPTHKPRP: 0.0649. With RRIRLRPPRLPRPRPRPNENPRP, the “shrunken log2 fold change” value was -0.189. For RRIRWRPPRLPRPRPRPKPAPRP the value was 0.605; for RRIRVRPPRLPRPRPRPQKDPRP, -0.187; for RRIRSRPPRLPRPRPRPWIKPRP, -0.34. For the sequence RRIRQRPPRLPRPRPRPLIYPRP, the “shrunken log2 fold change” value is -0.457.

Consider RRIRIRPPRLPRPRPRPNHVPRP, for which the “shrunken log2 fold change” value is -0.278. As for RRIRWRPPRLPRPRPRPVRYPRP, the “shrunken log2 fold change” value was 0.00421. Next, RRIRERPPRLPRPRPRPKYTPRP: -0.297; RRIRKRPPRLPRPRPRPEFVPRP: 0.587; RRIRDRPPRLPRPRPRPSHFPRP: -0.0338. Next, RRIRDRPPRLPRPRPRPNQVPRP: -0.329; RRIRARPPRLPRPRPRPMDNPRP: -0.114. For RRIRSRPPRLPRPRPRPYHGPRP the value was -0.397; for RRIRWRPPRLPRPRPRPCACPRP, 0.0874; for RRIRYRPPRLPRPRPRPNMHPRP, -0.934. As for RRIRCRPPRLPRPRPRPSTRPRP, the “shrunken log2 fold change” value is -0.119. RRIRIRPPRLPRPRPRPQGKPRP: the “shrunken log2 fold change” value is -0.385. For RRIRMRPPRLPRPRPRPRLFPRP the value was 0.998; for RRIRQRPPRLPRPRPRPHEGPRP, -0.0113; for RRIRMRPPRLPRPRPRPNLHPRP, -0.0942. Next, RRIRKRPPRLPRPRPRPGFQPRP: 0.138; RRIRMRPPRLPRPRPRPVPWPRP: 0.581. Take RRIRMRPPRLPRPRPRPQIEPRP: the “shrunken log2 fold change” value was determined as 0.277. As to RRIRTRPPRLPRPRPRPTKYPRP, the “shrunken log2 fold change” value was -0.612. Consider RRIRKRPPRLPRPRPRPVHQPRP, for which the “shrunken log2 fold change” value amounted to 0.305.

As for RRIRNRPPRLPRPRPRPIDFPRP, the “shrunken log2 fold change” value is -0.413.

With RRIRKRPPRLPRPRPRPKADPRP, the “shrunken log2 fold change” value stood at 0.018. RRIRGRPPRLPRPRPRPHFNPRP: the “shrunken log2 fold change” value is 0.232.

With RRIRSRPPRLPRPRPRPHRGPRP, the “shrunken log2 fold change” value was -0.128.

As to RRIRIRPPRLPRPRPRPKEDPRP, the “shrunken log2 fold change” value was -0.327. For RRIRKRPPRLPRPRPRPQPDPRP the value was 0.459; for RRIRCRPPRLPRPRPRPMNIPRP, -0.693.

On to RRIRYRPPRLPRPRPRPCCCPRP, for which the “shrunken log2 fold change” value is -0.211. For RRIRHRPPRLPRPRPRPQQSPRP the value was -0.0132; for RRIRHRPPRLPRPRPRPQLLPRP, -0.197; for RRIRIRPPRLPRPRPRPSGSPRP, -0.17. For RRIRGRPPRLPRPRPRPGPLPRP the value was 0.363. As for RRIRNRPPRLPRPRPRPKCVPRP, the “shrunken log2 fold change” value was -0.0346. Next, RRIRVRPPRLPRPRPRPRNTPRP: -0.365; RRIRLRPPRLPRPRPRPIAFPRP: -0.14.

Consider RRIRHRPPRLPRPRPRPMNNPRP, for which the “shrunken log2 fold change” value was -0.759. Next, RRIRARPPRLPRPRPRPGTIPRP: -0.0682; RRIRRRPPRLPRPRPRPLEMPRP: 0.181.

In the case of RRIRLRPPRLPRPRPRPMEAPRP, the “shrunken log2 fold change” value was -0.00122. On to RRIRCRPPRLPRPRPRPLCCPRP, for which the “shrunken log2 fold change” value was -0.237. As for RRIRNRPPRLPRPRPRPQRMPRP, the “shrunken log2 fold change” value is 0.0535. Next, RRIRERPPRLPRPRPRPMQMPRP: -0.254.

In the case of RRIRFRPPRLPRPRPRPEICPRP, the “shrunken log2 fold change” value came out at 0.172. RRIRFRPPRLPRPRPRPNDIPRP: the “shrunken log2 fold change” value is -0.169. For RRIRARPPRLPRPRPRPQFTPRP the value was 0.0535; for RRIRMRPPRLPRPRPRPMCEPRP, 0.273.

For the sequence RRIRVRPPRLPRPRPRPLFCPRP, the “shrunken log2 fold change” value is -0.103. For RRIRKRPPRLPRPRPRPMIPPRP the value was 0.0969; for RRIRPRPPRLPRPRPRPFQPPRP, -0.0843; for RRIRWRPPRLPRPRPRPRWQPRP, -0.0189. On to RRIRWRPPRLPRPRPRPAMPPRP, for which the “shrunken log2 fold change” value amounted to 0.446. For RRIRERPPRLPRPRPRPWATPRP the value was 0.127.

On to RRIRFRPPRLPRPRPRPNPDPRP, for which the “shrunken log2 fold change” value is -0.0966.

As for RRIRARPPRLPRPRPRPNAEPRP, the “shrunken log2 fold change” value came to 0.679.

Take RRIRTRPPRLPRPRPRPMNHPRP: the “shrunken log2 fold change” value is -0.0849. With RRIRWRPPRLPRPRPRPQCGPRP, the “shrunken log2 fold change” value is -0.0434.
